From US9353390B2, “Genetically engineered microbes and methods for producing 4-hydroxycoumarin” (University of Georgia Research Foundation, Inc., priority 2013, dated 2016) come the findings set out here.

Where “and” joins values, the source holds several entries; their conditions need not be identical. Equal entries are not always repeated.

The target of data set [1] is T1, PchA, isochorismate synthase from Pseudomonas aeruginosa PAO1 (purified, N-terminal His tag) (Pseudomonas aeruginosa, UniProt Q51508).
T1 construct: coupled with PaPchB
The data set is classed as biochemical. Conditions: chorismic acid, pH 7.5, 30° C., mean ± s.d., n = 2.

Data set [2] has as its target T2, EntC, isochorismate synthase from E. coli MG1655 (purified, N-terminal His tag) (Escherichia coli, UniProt P0AEJ2).
T2 sequence (P0AEJ2 1-391): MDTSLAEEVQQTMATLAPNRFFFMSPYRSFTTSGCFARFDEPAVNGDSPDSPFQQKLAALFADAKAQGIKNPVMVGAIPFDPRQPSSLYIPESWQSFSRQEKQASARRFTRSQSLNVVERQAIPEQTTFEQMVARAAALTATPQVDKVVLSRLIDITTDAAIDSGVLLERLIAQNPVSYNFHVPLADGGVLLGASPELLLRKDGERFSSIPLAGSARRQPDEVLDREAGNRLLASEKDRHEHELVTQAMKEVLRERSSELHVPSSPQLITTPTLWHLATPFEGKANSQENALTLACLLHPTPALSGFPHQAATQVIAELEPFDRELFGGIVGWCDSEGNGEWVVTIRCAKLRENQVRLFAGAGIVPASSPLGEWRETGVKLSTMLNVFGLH
The data set can be described thus: ICS coupled enzyme assay, EntC (with PaPchB, salicylate accumulation by HPLC). Conditions: chorismic acid, pH 7.5, 30° C., 0.1 μM enzyme, mean ± s.d., n = 2.

Data set [3] deals with T3, MenF, isochorismate synthase from E. coli MG1655 (purified, N-terminal His tag) (Escherichia coli, UniProt P38051).
T3 sequence (P38051 1-431): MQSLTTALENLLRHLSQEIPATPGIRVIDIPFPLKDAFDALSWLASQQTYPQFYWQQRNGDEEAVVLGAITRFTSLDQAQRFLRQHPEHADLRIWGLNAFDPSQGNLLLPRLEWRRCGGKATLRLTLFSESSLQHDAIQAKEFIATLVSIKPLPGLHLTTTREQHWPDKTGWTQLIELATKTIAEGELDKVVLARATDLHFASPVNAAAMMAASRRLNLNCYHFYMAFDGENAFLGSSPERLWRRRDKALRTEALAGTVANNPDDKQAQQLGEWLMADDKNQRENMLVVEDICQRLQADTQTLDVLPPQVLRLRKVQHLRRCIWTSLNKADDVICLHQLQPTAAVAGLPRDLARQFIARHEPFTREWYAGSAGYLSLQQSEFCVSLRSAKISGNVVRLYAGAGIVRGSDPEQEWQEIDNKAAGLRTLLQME
As to the kind of experiment: ICS coupled enzyme assay, MenF (with PaPchB, salicylate accumulation by HPLC). The settings on record: chorismic acid, pH 7.5, 30° C., 0.1 μM enzyme, mean ± s.d., n = 2.

For a further data set, the system named is O=C(O)c1ccccc1O. As to the kind of experiment: purified protein, by the assay type. Conditions: other: MdpB2, salicylate, pH 7.5, 30° C., mean ± s.d., n = 2.
Substrate in data set [4]: C=C(O[C@@H]1C=C(C(=O)O)C=C[C@H]1O)C(=O)O
The data set can be described thus: purified protein, by the assay type. The settings on record: chorismic acid, pH 7.5, 30° C., mean ± s.d., n = 2.

Data set [5] has as its system conversion of salicylate to 4HC. The data set can be described thus: In vitro complementation assay, salicylate to 4HC in crude extract of E. coli/pZE-EPBS. The settings on record: purified enzyme supplemented into crude extract with required cofactors; crude extract alone 0.18 mg/L/h.

T1 sequence (Q51508 whole entry): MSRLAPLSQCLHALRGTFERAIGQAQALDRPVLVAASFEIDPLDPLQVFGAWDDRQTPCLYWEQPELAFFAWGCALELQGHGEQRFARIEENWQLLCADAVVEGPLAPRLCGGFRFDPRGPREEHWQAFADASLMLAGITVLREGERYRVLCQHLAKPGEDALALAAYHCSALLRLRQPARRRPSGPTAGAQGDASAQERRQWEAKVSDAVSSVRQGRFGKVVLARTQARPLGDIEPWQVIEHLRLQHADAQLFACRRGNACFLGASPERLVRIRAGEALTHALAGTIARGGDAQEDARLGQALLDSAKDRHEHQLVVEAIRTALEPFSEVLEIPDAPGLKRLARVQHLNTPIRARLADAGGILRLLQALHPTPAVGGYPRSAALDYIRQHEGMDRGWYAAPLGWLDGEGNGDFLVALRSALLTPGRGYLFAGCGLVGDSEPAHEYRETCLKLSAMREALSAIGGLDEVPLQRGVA

In general, Km refers to the concentration of substrate that gives half-maximal velocity. On to `C=C(O[C@@H]1C=C(C(=O)O)C=C[C@H]1O)C(=O)O` [chorismic acid], for which the kcat is 0.20 S^−1 and 0.20 ± 0.01 S^−1 in data set [1] (0.1 μM enzyme); 2.12 S^−1 and 2.12 ± 0.07 S^−1 in data set [2]; 0.13 S^−1 and 0.13 ± 0.01 S^−1 in data set [3]. Further, the Km in data set [1] was 3.69 ± 0.53 µM.
The term kcat/Km denotes the turnover number divided by the Michaelis constant. For “MdpB2, salicylate:CoA ligase from Actinomadura madurae ATCC39144 (purified, N-terminal His tag) (Actinomadura madurae)”, in the data set on O=C(O)c1ccccc1O, the Km worked out at 8.53 ± 0.94 µM, the kcat came out at 1.18 ± 0.03 s⁻¹ and the kcat/Km worked out at 138000 M⁻¹ s⁻¹.

B1: EntC, isochorismate synthase from E. coli MG1655 (purified, N-terminal His tag) (Escherichia coli K-12) (protein)
chain: T2 sequence (P0AEJ2 1-391)
Take B1: in data set [4] (other: EntC), the Km was 11.93 ± 1.37 µM.

B2: BIS3: Biphenyl synthase from Sorbus aucuparia, 4HC-forming enzyme (protein, UniProt D2DRC5 1-388, looked up)
4-hydroxycoumarin synthase 2: MAPVVKNEPQHAKILAIGTANPPNVFHQKDYPDFLFRVTKNEHRTDLREKFDRICEKSRTKKRYLHLTEEMLKANPNIYTYGAPSLNVRQDICNIEVPKLGQEASLKAIKEWGQPISKITHLIFCTASCVDMPGCDFQLIKLLGLDPSVTRTMIYEAGCYAGATVLRMAKDFAENNKGARVLVVCAEITTVFFHGLTDTHLDILVGQALFADGASAVIVGANPEPEIERPLFEIVACRQTILPNSEHGVVANIREMGFNYYLSGDVPKFVGGNVVDFMTKTFEKVDGKNKDWNSLFFSVHPGGPAIVDQVEEKLGLKEGKLRATRHVLSEYGNMGAPTVHFILDEMRNKSIEEGKTTTGEGLEWGVVIGIGPGLTVETAVLRSEFITY
Regarding B2, in data set [5], the “rate of conversion of salicylate to 4HC” value stood at 7.83 mg/L/h.

B3: MenF, isochorismate synthase from E. coli MG1655 (purified, N-terminal His tag) (Escherichia coli K-12) (protein)
chain: T3 sequence (P38051 1-431)
As for B3, the Km in data set [4] (other: MenF) came to 6.75 ± 2.99 µM.
